This experiment addresses recombinant human IL-1RI Fc chimera (human) (UniProt P14778). The experiment in a line: ELISA.
Chain of UniProt P14778 (P14778 18-336, change not shown): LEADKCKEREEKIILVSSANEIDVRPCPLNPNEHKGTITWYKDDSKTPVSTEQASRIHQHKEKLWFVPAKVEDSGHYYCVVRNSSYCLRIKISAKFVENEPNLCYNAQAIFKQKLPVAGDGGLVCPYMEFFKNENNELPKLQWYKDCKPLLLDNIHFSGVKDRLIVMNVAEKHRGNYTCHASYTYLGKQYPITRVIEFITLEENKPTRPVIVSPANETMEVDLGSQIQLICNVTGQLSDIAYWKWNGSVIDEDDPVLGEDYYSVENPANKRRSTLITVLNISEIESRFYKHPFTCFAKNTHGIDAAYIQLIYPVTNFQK

Turning to hIL-1b(D145K) (ligand), the fold reduction of affinity against wild-type IL-1β is 3500 fold.
